For this test, the target named is Pin1 WW domain. Description: ITC titration of unphosphorylated CPEB1 N-terminal fragments with Pin1 WW domain. It counts as binding. The settings on record: Pin1 WW domain as titrant, fragment as titrate, titrations could not be efficiently saturated, data not shown. The text has this: CPEB1 proteins display high sequence conservation in vertebrates (Supplementary Fig.1). To gain insight into the association of Pin1 with CPEB1 in the basal state, we prepared two recombinant fragments named NF1 (88–183) and NF2 (196–293), selected from the N-terminal region of CPEB1 (Fig. 1a). The boundaries of these constructs were chosen to be similar to that used by Nechama et al.[14], and were extended to include Ser210, known to be essential for degradation after phosphorylation by Cdc2[9]. Since target recognition of Pin1 is achieved by the interaction of the WW domain with the protein partners, we prepared an ^15N-labeled WW domain sample and monitored the chemical shift perturbations induced in the WW domain by the presence of the ligands (1:1 WW: ligand ratio) using HSQC experiments (Fig. 1b,c). These experiments reveal that, despite the low affinity associations, residues of the WW domain are clearly affected by the presence of the CPEB 1 fragments. Attempts to saturate the NMR titration using high ligand excess were precluded due to the aggregation tendency of the NF1 and NF2 fragments. […]
ITC measurements were performed using a nano ITC calorimeter (TA Instruments) at 12 °C or 25 °C. […] Protein concentration was measured in a NanoDrop™ 2000 measuring the UV absorption at 280 nm. Peptide concentration was determined by amino acid analysis. […]
A general note: In ITC the heat of successive injections is recorded.

B1: NF1: recombinant unphosphorylated fragment (88–183) of the N-terminal region of CPEB1 Isoform 1 (Uniprot Q9BZB8) (protein, UniProt Q9BZB8 88-183, looked up, fragment)
chain: GLPDANDLCLGLQSLSLTGWDRPWSTQDSDSSAQSSTHSVLSMLHNPLGNVLGKPPLSFLPLDPLGSDLVDKFPAPSVRGSRLDTRPILDSRSSSP
On to B1, for which the “binding affinity to Pin1 WW domain” value is recorded as “high μM up to the mM range”.

B2: NF2: recombinant unphosphorylated fragment (196–293) of the N-terminal region of CPEB1 Isoform 1 (Uniprot Q9BZB8) (protein, UniProt Q9BZB8 196-293, looked up, fragment)
chain: DHLSDLISSLRISPPLPFLSLSGGGPRDPLKMGVGSRMDQEQAALAAVTPSPTSASKRWPGASVWPSWDLLEAPKDPFSIEREARLHRQAAAVNEATC
As to B2, the “binding affinity to Pin1 WW domain” value was “high μM up to the mM range”.
